Each block holds one compound with its values, some of them ahead of it.
Legend:
[1] = molecular target: T1, PLK1 (polo-like kinase 1) polo-box domain (Homo sapiens, UniProt P53350); assay: crystal structure (soaking) and competitive fluorescence polarisation with TAMRA-labelled PBIP1 phosphopeptide; type: binding
T1 construct: polo-box domain (PBD), recombinant

[2] = molecular target: PLK1 (UniProt P53350); assay: GFP-Trap co-IP, anti-NEDD1 immunoblot; settings: reference: GFP-PLK1Wt
[3] = molecular target: PLK1 (UniProt P53350); assay: V5 co-IP, immunoblot; settings: reference: PBIP1Wt-V5; sites T78

T1 sequence (P53350 367-603 limits assumed): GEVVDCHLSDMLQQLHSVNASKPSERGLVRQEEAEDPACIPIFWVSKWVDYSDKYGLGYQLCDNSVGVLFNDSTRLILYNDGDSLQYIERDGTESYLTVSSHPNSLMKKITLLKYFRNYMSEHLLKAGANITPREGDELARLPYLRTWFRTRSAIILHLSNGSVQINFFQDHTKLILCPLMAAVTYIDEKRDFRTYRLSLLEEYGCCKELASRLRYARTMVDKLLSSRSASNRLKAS

IC50 [1]: 115 ± 24 µM
Compound: O=C(Nc1cccc(C(C(=O)O)C(=O)O)c1)c1ccc(C(=O)c2cccc(I)c2)s1 [Polotyrin]

other: IP band intensity normalised to input [2]: lost; reference 0.2
Compound: NEDD1 (from UniProt Q8NHV4) GFP-PLK1AM (H538A/K540M)

other: IP band intensity normalised to input [3]: weaker; reference 2.5
Compound: PBIP1 (Polo-Box Interacting Protein 1) (from UniProt Q71F23) PBIP1-T78A-V5

Source: paper PMC6828814, “A cryptic hydrophobic pocket in the polo-box domain of the polo-like kinase PLK1 regulates substrate recognition and mitotic chromosome segregation” (Scientific Reports, 2019)
